Key:
streptavidin [1] = biological target: streptavidin (UniProt P22629); test: release from M280 Streptavidin Dynabeads by 5 mM biotin or bis-biotin, fluorescence of supernatant
streptavidin [2] = biological target: streptavidin (UniProt P22629); test: BLI (Octet), streptavidin biosensor tips, conjugate in solution, 25 C
streptavidin [3] = biological target: streptavidin (UniProt P22629); test: release from streptavidin beads by biotin

Sequence of streptavidin (P22629 37-163 limits assumed): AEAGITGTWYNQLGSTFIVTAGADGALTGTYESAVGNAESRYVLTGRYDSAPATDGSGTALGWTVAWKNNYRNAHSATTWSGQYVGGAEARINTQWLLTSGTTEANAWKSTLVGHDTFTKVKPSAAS

Substance | Detachment (streptavidin [1]) [%] | Kd (streptavidin [2]) [pM] | koff (streptavidin [2]) [s⁻¹] | kon (streptavidin [2]) [M⁻¹ s⁻¹] | Detach. (streptavidin [3]) [%]
DSB-X-Ab (goat anti-mouse IgG linked to DSB-X) (antibody) | 16 | – | – | – | –
Biotin-Ab (antibody) | – | 0.00595 | 1.43e-07 | 2.41e+07 | 0
18-Ab (goat anti-mouse IgG linked to biotin derivative 18) (antibody) | 85 | – | – | – | –

From patent US20170174700A1
